B1: Outer membrane protein A, P0A910 (parent)
chain: MKKTAIAIAVALAGFATVAQAAPKDNTWYTGAKLGWSQYHDTGFINNNGPTHENQLGAGAFGGYQVNPYVGFEMGYDWLGRMPYKGSVENGAYKAQGVQLTAKLGYPITDDLDIYTRLGGMVWRADTKSNVYGKNHDTGVSPVFAGGVEYAITPEIATRLEYQWTNNIGDAHTIGTRPDNGMLSLGVSYRFGQGEAAPVVAPAPAPAPEVQTKHFTLKSDVLFNFNKATLKPEGQAALDQLYSQLSNLDPKDGSVVVLGYTDRIGSDAYNQGLSERRAQSVVDYLISKGIPADKISARGMGESNPVTGNTCDNVKQRAALIDCLAPDRRVEIEVKGIKDVVTQPQA

Variants of: B1
Conditions: Escherichia coli (strain K12); pH 9.2; 37 °C; Urea; Fluorescence; Glycine 10 mM; reversible: Yes; structure 1QJP; whole UniProt chain shown

Row | Variant | ddG of mutation (higher = less stable) | denaturant m value | denaturant midpoint (higher = more stable) | unfolding free energy
1 | W28A | 3.6 kcal/mol | 1.9 kcal/mol/M | 3 M | 5.7 kcal/mol
2 | F144A W164A | 3.9 kcal/mol | 2.3 kcal/mol/M | 2.4 M | 5.4 kcal/mol
3 | F144A Y162A W164A | 6.8 kcal/mol | 2 kcal/mol/M | 1.2 M | 2.5 kcal/mol
4 | Y64A | 3.8 kcal/mol | 2.2 kcal/mol/M | 2.6 M | 5.5 kcal/mol
5 | Y189A F191A | 1.2 kcal/mol | 3.1 kcal/mol/M | 2.6 M | 8.1 kcal/mol
6 | Y162A W164A | 5.7 kcal/mol | 2.2 kcal/mol/M | 1.6 M | 3.6 kcal/mol
7 | F72A | 1.2 kcal/mol | 2.3 kcal/mol/M | 3.5 M | 8.1 kcal/mol
8 | F144A Y162A | 5.3 kcal/mol | 2.1 kcal/mol/M | 1.9 M | 4 kcal/mol
9 | Y76A W78A | 4.2 kcal/mol | 2.4 kcal/mol/M | 2.1 M | 5.1 kcal/mol

From FireProtDB (doi:10.1021/ja068849o)
